Results on one substance are retold here after patent US8586570B2, “Sox-based kinase sensor” (Massachusetts Institute of Technology, priority 2006, dated 2013).

Common to all, as to type: biochemical
The target in one test is PKCα (Homo sapiens, UniProt P17252). The experiment in a line: Kinetic parameters of the peptides with PKCα (continuous fluorescence assay). The source says:
To solve for enzyme kinetic parameters for this reaction, determination of the initial rate of product formation from the increase in fluorescence intensity is necessary. With this sensor, a correction for the decrease in fluorescence intensity due to the starting material being consumed is needed to determine the rate of product formation from the initial slope. The fluorescence intensity at any given point can be determined from the following equation: I(t)=fSs(t)+fPP(t) (1) where I(t) is the fluorescence intensity, S(t) is the amount of substrate in μM, P(t) is the amount of product in μM, fS is the fluorescence intensity per μM of substrate, and fP is fluorescence intensity per μM of product. The amount of substrate and product at any given point are related by: S(t)+P(t)=S0 (2) where S0 is the initial amount of substrate. Substitution of (2) into (1) followed by rearrangement, yields:
[formula] The initial slope of the reaction, dI(t)/dt, was measured within the first 5% of substrate turnover. The constants fP and fS were calculated from the slope of a line of fluorescence intensity versus concentration of P and S, respectively. A linear fit of a Hanes plot ([S]/V vs. […]) was used to find Km and Vmax.
For in vitro applications, the concentration of kinase can range from about 0.5 nM to about 1 μM, typically not more than about 500 nM, and preferably not more than about 250 nM. The concentrations of sensor can vary, but usually ranges between about 0.01 μM to 0.1 mM. Adenosine 5′-triphosphate (ATP) is the preferred source of phosphate, in stock solutions of about 10-100 mM. Because most kinases have Km values for ATP in the range of about 10-150 μM, saturating concentrations of ATP are used to arrive at values of Km and Vmax for the substrates. For in vivo applications, when the sensor is internalized into a cell, sufficient kinases, Mg^2+ and phosphate sources exist in the cytosol. For in vivo sensing, a cellular internalization sequence can be included in the sensor design. Suitable cellular internalization sequences include Penetratins, HIV-Tat domains and poly-arginine sequences (Lindgren, M. et al. Trends Pharmacol. Sci. 2000, 21, 99-103; Wadia, J. S. et al. Curr Opin. Biotech. 2002, 13, 52-56; Carrigan, C. N. Analyt. Biochem. 2005, 341, 290-298).
For applications in which the kinase is dependent on cofactors, a source of cofactor is also included in the sample. For example, for PKC, sources of Ca^2+, phospholipid and diacylglycerol are needed.
Fluorescence experiments were performed on a Fluoromax 3 from Jobin Yvon. 5 nm emission and excitation slit widths were used. For all experiments, an excitation wavelength of 360 nm was used. Enzyme assays were performed by monitoring emission at 485 nm.

Another test addresses T1, PKCζ (Homo sapiens, UniProt Q05513).
T1 sequence (Q05513 1-592): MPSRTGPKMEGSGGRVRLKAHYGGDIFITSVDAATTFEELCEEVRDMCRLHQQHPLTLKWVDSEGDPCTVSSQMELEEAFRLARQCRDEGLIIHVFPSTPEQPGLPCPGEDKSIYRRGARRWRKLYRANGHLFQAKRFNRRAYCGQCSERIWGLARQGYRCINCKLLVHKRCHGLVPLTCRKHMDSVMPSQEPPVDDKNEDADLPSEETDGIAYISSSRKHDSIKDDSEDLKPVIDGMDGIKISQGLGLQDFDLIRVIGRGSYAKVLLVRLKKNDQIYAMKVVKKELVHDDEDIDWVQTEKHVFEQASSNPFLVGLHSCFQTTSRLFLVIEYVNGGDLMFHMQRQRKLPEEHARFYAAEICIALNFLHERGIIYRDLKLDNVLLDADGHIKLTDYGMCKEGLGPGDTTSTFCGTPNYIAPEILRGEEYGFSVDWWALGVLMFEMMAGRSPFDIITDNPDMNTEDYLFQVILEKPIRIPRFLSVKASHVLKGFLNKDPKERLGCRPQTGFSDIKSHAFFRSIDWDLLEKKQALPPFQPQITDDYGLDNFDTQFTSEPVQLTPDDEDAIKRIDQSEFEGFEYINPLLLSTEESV
The experiment in a line: Cross-reactivity of PKCα-S10 with PKC isozymes. As to conditions: peptide 1 μM, isozyme 2 ng. The method, then: (§1) With the kinetic parameters at hand it is possible to test the cross-reactivity of PKCα-S10 with PKC isozymes. In 12 separate reactions PKCα-S10 (1 μM) is subjected to phosphorylation with PKCα, PKCβI, PKCβII, PKCγ, PKCδ, PKCε, PKCζ, PKCη, PKCθ, PKCι, PKCμ and PKCν (2 ng).

The next test addresses PKCδ (Homo sapiens, UniProt Q05655). Briefly: Cross-reactivity of PKCα-S10 with PKC isozymes. As to conditions: peptide 1 μM, isozyme 2 ng. As for the experimental part: as §1
The target of the next test is T2, PKCμ (Homo sapiens, UniProt Q15139).
T2 sequence (Q15139 1-912): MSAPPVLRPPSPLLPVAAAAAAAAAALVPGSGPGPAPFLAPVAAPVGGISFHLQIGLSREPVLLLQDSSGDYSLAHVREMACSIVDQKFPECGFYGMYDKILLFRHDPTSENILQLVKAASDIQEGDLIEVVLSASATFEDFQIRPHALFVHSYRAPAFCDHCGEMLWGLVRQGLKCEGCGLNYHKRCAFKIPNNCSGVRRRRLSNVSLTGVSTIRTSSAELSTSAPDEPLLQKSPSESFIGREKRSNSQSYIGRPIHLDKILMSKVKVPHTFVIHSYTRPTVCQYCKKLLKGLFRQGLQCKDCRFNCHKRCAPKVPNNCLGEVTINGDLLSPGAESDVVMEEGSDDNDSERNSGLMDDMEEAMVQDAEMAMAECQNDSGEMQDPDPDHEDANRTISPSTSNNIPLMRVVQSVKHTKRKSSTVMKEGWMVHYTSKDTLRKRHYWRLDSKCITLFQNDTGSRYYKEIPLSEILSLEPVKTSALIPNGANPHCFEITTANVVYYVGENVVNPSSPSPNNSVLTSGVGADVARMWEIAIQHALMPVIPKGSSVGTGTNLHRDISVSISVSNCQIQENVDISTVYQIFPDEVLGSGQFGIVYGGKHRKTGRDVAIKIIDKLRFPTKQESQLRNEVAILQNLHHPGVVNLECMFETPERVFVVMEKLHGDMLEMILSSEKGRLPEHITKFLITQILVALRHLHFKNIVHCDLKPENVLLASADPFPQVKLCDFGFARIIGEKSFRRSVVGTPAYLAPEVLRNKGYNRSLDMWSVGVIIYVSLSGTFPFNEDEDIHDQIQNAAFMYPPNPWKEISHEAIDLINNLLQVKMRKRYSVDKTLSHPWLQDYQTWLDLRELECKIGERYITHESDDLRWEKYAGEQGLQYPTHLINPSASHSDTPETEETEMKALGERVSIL
The experiment in a line: Cross-reactivity of PKCα-S10 with PKC isozymes. As to conditions: peptide 1 μM, isozyme 2 ng. The method, then:
as §1

In general, Km refers to the substrate concentration at which the rate is half of its maximum. In general, Vmax refers to the top rate of the reaction or transport when substrate is in excess.

Chain of PKCδ (Q05655 whole entry): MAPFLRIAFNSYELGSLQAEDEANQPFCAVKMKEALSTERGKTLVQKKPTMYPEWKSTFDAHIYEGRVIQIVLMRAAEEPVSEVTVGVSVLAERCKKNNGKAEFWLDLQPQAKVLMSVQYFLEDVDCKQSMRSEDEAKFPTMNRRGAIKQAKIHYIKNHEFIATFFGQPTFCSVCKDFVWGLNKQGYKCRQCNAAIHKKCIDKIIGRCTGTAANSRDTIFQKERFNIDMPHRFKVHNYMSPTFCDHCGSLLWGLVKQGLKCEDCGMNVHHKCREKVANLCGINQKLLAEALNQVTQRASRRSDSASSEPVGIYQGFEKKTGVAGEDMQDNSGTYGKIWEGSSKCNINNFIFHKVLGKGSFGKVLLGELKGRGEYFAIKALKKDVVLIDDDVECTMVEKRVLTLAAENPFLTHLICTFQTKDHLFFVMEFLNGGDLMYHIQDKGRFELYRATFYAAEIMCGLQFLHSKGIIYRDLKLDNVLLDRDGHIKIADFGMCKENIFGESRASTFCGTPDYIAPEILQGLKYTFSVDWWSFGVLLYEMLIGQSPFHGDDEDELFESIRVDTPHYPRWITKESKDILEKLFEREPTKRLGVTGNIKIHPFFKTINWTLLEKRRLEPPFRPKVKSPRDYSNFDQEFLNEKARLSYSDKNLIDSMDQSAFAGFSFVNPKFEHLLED

For the substance “Ac-RRR-C(Sox)-ASFRRKA-CONH2 [PKCα-S10(P10), Sox chemosensor with extended recognition domain for PKCα]”, the “selectivity for PKCα” value with PKCα (as determined by kinetic parameters, compared with PKCα-S1) is reported as “much more selective for PKCα”. Besides, the Km in the test with PKCα (with PKCα) is 0.12 ± 0.018 µM. For the same substance, in the test with PKCα (with PKCα), the Vmax worked out at 2.2 ± 0.25 µmol/min/mg. The “activity of isozyme on peptide” value in the test with PKCζ is “very little activity”; in the test with PKCδ it was “no activity”; with PKCμ, “no activity”.
